Test results taken from publication PMC4278586 (Cell, 2014).

Columns and labels:
[1] = target: full-length gp120 monomer (HIV-1, isolate ; JRCSF as …, UniProt P20871); test: ITC
[2] = target: full-length gp120 pre-complexed with CD4 (HIV-1, isolate  (JRCSF as …, UniProt P20871;P01730)); test: ITC

B1: PGT124 Fab (Fab, V domains shown)
VH: QVQLQESGPGLVRPSETLSVTCIVSGGSISNYYWTWIRQSPGKGLEWIGYISDRETTTYNPSLNSRAVISRDTSKNQLSLQLRSVTTADTAIYFCATARRGQRIYGVVSFGEFFYYYYMDVWGKGTAVTVSS
VL: SYVSPLSVALGETARISCGRQALGSRAVQWYQHKPGQAPILLIYNNQDRPSGIPERFSGTPDINFGTTATLTISGVEVGDEADYYCHMWDSRSGFSWSFGGATRLTVL
Kd [1]: 38 nM
Kd [2]: 34 nM
